The nature of the data set: protein stability index of a GFP-peptide fusion (GPS, HEK-293T) (PSI 1-6); higher = more stable. The settings on record: c terminus: a fixed tail appended.

± gives the standard deviation.
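Also: 24-mer peptide tiles fused after GFP, lentivirally expressed, FACS-sorted into six equal bins by GFP/DsRed ratio, decoded by Illumina sequencing, PSI is the read-weighted mean bin number.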

In the case of LHDNHEQMPTEIEFPESRKPISTK [ZNF649], the protein stability index by setting is: (treatment: DMSO) 5.1 ± 0.22; (treatment: MLN4924 1 uM, 8 h) 5.25 ± 0.31.

Take LHVNPKKQTIGNSCKACGYRGMLD [EIF5]: the protein stability index was determined as 2.35 ± 0.29 (treatment: DMSO) and 2.44 ± 0.64 (treatment: MLN4924 1 uM, 8 h).

As to LIQDGNPMENLEKQLICPICLEMF [TRIM63], the protein stability index reads like this: (treatment: DMSO) 2.87 ± 0.58; (treatment: MLN4924 1 uM, 8 h) 2.97 ± 0.54.

For the sequence LKEFDLDALLGIDDLETMPDDLLT [ATF4], the protein stability index runs as follows: (treatment: DMSO) 3.81 ± 0.2; (treatment: MLN4924 1 uM, 8 h) 4.05 ± 0.38.

For the sequence LKERYQKIGDTKRNTPIEALCENF [CSNK1G1], the protein stability index runs as follows: (treatment: DMSO) 3.43 ± 0.65; (treatment: MLN4924 1 uM, 8 h) 3.44 ± 0.49.

Consider LKKSNSAPSKKAAKDPGKGELPNH [FBF1], for which the protein stability index runs as follows: (treatment: DMSO) 5.14 ± 0.1; (treatment: MLN4924 1 uM, 8 h) 5.08 ± 0.11.

With LLASSDAALSASMASLLEDLSHIE [SERTAD1], the protein stability index runs as follows: (treatment: DMSO) 3.06 ± 0.37; (treatment: MLN4924 1 uM, 8 h) 3.27 ± 0.33.

In turn, LLEPEEGGRAYQALHCPTGTEYTC [TRIB3] had a protein stability index (treatment: DMSO) of 3.8 ± 0.31 and a protein stability index (treatment: MLN4924 1 uM, 8 h) of 4.1 ± 0.23.

As to LLIANKRQSYDISIVAQVDQTGSK [CARM1], the protein stability index by setting is: (treatment: DMSO) 2.47 ± 0.25; (treatment: MLN4924 1 uM, 8 h) 2.52 ± 0.26.

Regarding LLLERAAAGSPRSPGPLPGARGLH [ISL2], the protein stability index amounted to 2.8 ± 0.15 (treatment: DMSO) and 2.97 ± 0.049 (treatment: MLN4924 1 uM, 8 h).

Consider LLQLSDACRFQEDQEMARDLVERA [TCF25], for which the protein stability index turned out to be 3.64 ± 0.34 (treatment: DMSO) and 3.77 ± 0.52 (treatment: MLN4924 1 uM, 8 h).

For LLQSFHGHGADVLCLDLAPSETGN [GNB5], the protein stability index came out at 3.23 ± 0.3 (treatment: DMSO) and 3.39 ± 0.14 (treatment: MLN4924 1 uM, 8 h).

Turning to LLRRDLGVGTSMEGASPLSERCQR [FANCE], the protein stability index turned out to be 4.01 ± 0.15 (treatment: DMSO) and 4.17 ± 0.083 (treatment: MLN4924 1 uM, 8 h).

LLTVTATDRDEGANGEVTYSFRKL [PCDHGA10]: the protein stability index came to 4.1 ± 0.26 (treatment: DMSO) and 4.15 ± 0.33 (treatment: MLN4924 1 uM, 8 h).

In the case of LMPGMPPGMPPPVPRPGIPPMTQA [ZNF207], the protein stability index is, setting by setting: (treatment: DMSO) 4.01 ± 0.34; (treatment: MLN4924 1 uM, 8 h) 4.2 ± 0.31.

LNEKRTFFHLSALKGYLYAVGGRN [KLHL13]: the protein stability index (treatment: DMSO) amounted to 2.49 ± 0.68 and the protein stability index (treatment: MLN4924 1 uM, 8 h) came to 2.33 ± 0.46.

Regarding LPDAGSGRQPALRPHVHKQTEKTT [ISL2], the protein stability index runs as follows: (treatment: DMSO) 5.26 ± 0.22; (treatment: MLN4924 1 uM, 8 h) 5.04 ± 0.23.

For LPEKPVKLASHTRDTTGVSQMFPS [FBF1], the protein stability index (treatment: DMSO) worked out at 3.97 ± 0.13 and the protein stability index (treatment: MLN4924 1 uM, 8 h) was 3.99 ± 0.47.

On to LPESLARSLLPSTEYQKQLLAAQV [FBF1], for which the protein stability index is, setting by setting: (treatment: DMSO) 2.75 ± 0.46; (treatment: MLN4924 1 uM, 8 h) 2.56 ± 0.26.

As for LPGSYLSSECHTSGFVGSGGWFCE [KRT36], the protein stability index by setting is: (treatment: DMSO) 2.15 ± 0.39; (treatment: MLN4924 1 uM, 8 h) 2.24 ± 0.26.

Consider LPIVKLLAKQPGVSVNAQTLDGRT [RIPK4], for which the protein stability index was found to be 2.71 ± 0.17 (treatment: DMSO) and 3.13 ± 0.56 (treatment: MLN4924 1 uM, 8 h).

Take LPSRPPPLLSPLLASRNPCPWHYL [RSPH3]: the protein stability index is 2.27 ± 0.2 (treatment: DMSO) and 2.15 ± 0.22 (treatment: MLN4924 1 uM, 8 h).

With LQDQEKAWGFPENATAPRSPSHSP [ELOA2], the protein stability index reads like this: (treatment: DMSO) 5.38 ± 0.26; (treatment: MLN4924 1 uM, 8 h) 5.4 ± 0.26.

As for LQRASILDMRRDHEEQLQRLKLLK [FBF1], the protein stability index is 3.43 ± 0.48 (treatment: DMSO) and 3.72 ± 0.33 (treatment: MLN4924 1 uM, 8 h).

Regarding LQVIYWARDVFIITGVWVFFFNPC [GOSR1], the protein stability index reads like this: (treatment: DMSO) 2.37 ± 0.7; (treatment: MLN4924 1 uM, 8 h) 2.57 ± 0.15.

LRAVEQAMGHSQDRLTTFQENQAR [LRRC45] had a protein stability index (treatment: DMSO) of 4.48 ± 0.23 and a protein stability index (treatment: MLN4924 1 uM, 8 h) of 4.34 ± 0.22.

LRIFVWLLLLYFMQVIAIVLYLMM [PHTF1]: the protein stability index by setting is: (treatment: DMSO) 2.99 ± 0.71; (treatment: MLN4924 1 uM, 8 h) 2.75 ± 0.55.

Take LRIRSVEGRKKAFSTCGSHLTVVA [OR3A1]: the protein stability index by setting is: (treatment: DMSO) 2.43 ± 0.42; (treatment: MLN4924 1 uM, 8 h) 2.2 ± 0.47.

Sequence LRKGYLFMYNLVQFLGFSWIFVNL [HACD3] registered a protein stability index (treatment: DMSO) of 3.5 ± 0.29 and a protein stability index (treatment: MLN4924 1 uM, 8 h) of 3.22 ± 0.31.

LRNNFQKQLLSNKELILDKVYTHP [ZC2HC1C]: the protein stability index runs as follows: (treatment: DMSO) 2.76 ± 0.23; (treatment: MLN4924 1 uM, 8 h) 3.08 ± 0.25.

In the case of LRQHGPPNIVVAIAGNKCDLIDVR [RAB22A], the protein stability index came to 2.46 ± 0.39 (treatment: DMSO) and 2.4 ± 0.52 (treatment: MLN4924 1 uM, 8 h).

Take LRSAGVEQLMYIKEDLIIPHHHSF [FAM50A]: the protein stability index came to 2.38 ± 0.35 (treatment: DMSO) and 2.37 ± 0.25 (treatment: MLN4924 1 uM, 8 h).

For LRYLSSIWNILDLVVILLSIVAVG [PKD2L1], the protein stability index by setting is: (treatment: DMSO) 2.66 ± 0.65; (treatment: MLN4924 1 uM, 8 h) 3.3 ± 0.32.

Take LSFEQMTDAHVWNKSVTLYTVKDK [NLN]: the protein stability index turned out to be 2.61 ± 0.61 (treatment: DMSO) and 3.09 ± 0.63 (treatment: MLN4924 1 uM, 8 h).

Take LSLGALVALCWQLGLLFERHWHRP [SCNN1D]: the protein stability index runs as follows: (treatment: DMSO) 3.09 ± 0.24; (treatment: MLN4924 1 uM, 8 h) 3.16 ± 0.19.

For the sequence LSLLVHNVSVMHKSLDNMPNDEHW [FBXO33], the protein stability index is, setting by setting: (treatment: DMSO) 2.36 ± 0.31; (treatment: MLN4924 1 uM, 8 h) 2.4 ± 0.14.

(Values after the supplement of paper PMC10567573.)
